Assay results published in the supplement of paper PMC9732359.
± gives the uncertainty stated by the source.

Assay: protein stability index of a GFP-peptide fusion (yeast GPS) (PSI 1-4); higher = more stable; sorted into four equal gates, so the index is relative within each strain
In short: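 Tiled 17-residue yeast protein peptides were fused downstream of GFP in a plasmid that also expresses Cherry, and the pooled library was carried in yeast. Mid-log cultures in leucine-free medium were sorted into four equal gates by GFP/Cherry fluorescence ratio, and plasmids from each gate were PCR-amplified and Illumina-sequenced, with reads assigned to strains by barcodes. The protein stability index for each peptide was each gate's read frequency times its gate number, summed.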

| Sequence | protein stability index (doa10∆) | protein stability index (pdr5∆) | protein stability index (san1∆) | protein stability index (ubr1∆) |
| --- | --- | --- | --- | --- |
| NSSTSPAPSIPSTGFKF [YLR335W/NUP2] | 2.38 ± 0.04 | 2.5 ± 0.036 | 2.48 ± 0.043 | 2.21 ± 0.028 |
| RDGVLTVTLNKNREVVQ [RRP45] | 2.71 ± 0.11 | 2.93 ± 0.11 | 2.81 ± 0.08 | 2.73 ± 0.088 |
| FEIIFPPTDTNVEESVS [POP5] | 2.91 ± 0.091 | 2.68 ± 0.085 | 2.47 ± 0.071 | 3.09 ± 0.12 |
| LGITGLATDVTTLNEMF [PUP3] | 2.2 ± 0.16 | 2.39 ± 0.11 | 2.24 ± 0.16 | 2.27 ± 0.11 |
| KKNVWRSINNLIQEHDS [BRN1] | 3.16 ± 0.1 | 2.75 ± 0.075 | 2.63 ± 0.052 | 2.57 ± 0.041 |
| QQGQNMSEQQWREQLRN [ROX3] | 2.55 ± 0.071 | 2.48 ± 0.055 | 2.42 ± 0.086 | 2.23 ± 0.032 |
| LSSAGKNSSVSSLMNGL [SRB5] | – | 1.24 ± 0.11 | – | – |
| NSCFSDGSQQNLQQDKT [REC8] | 2.77 ± 0.09 | 2.76 ± 0.13 | 2.18 ± 0.2 | 2.88 ± 0.059 |
| KDHDLKIPLPEVHDLIG [POP1] | 3.11 ± 0.12 | 2.91 ± 0.14 | 2.73 ± 0.21 | 2.54 ± 0.11 |
| AADNLGSYGSLLRFNGV [PRE4] | 3.03 ± 0.088 | 3.15 ± 0.078 | 3.25 ± 0.12 | 3.04 ± 0.21 |
| NDFNDLNIDWSTTGDNG [MED2] | 2.84 ± 0.05 | 2.86 ± 0.051 | 2.84 ± 0.046 | 2.73 ± 0.042 |
| NTVMLQGIFKNSSNYFG [AAR2] | 2.21 ± 0.15 | 1.29 ± 0.094 | 2.15 ± 0.14 | 1.46 ± 0.2 |
| NLLPKKSAKTAKASQEL [HTA2] | 2.92 ± 0.092 | 3.05 ± 0.12 | 2.87 ± 0.11 | 3.18 ± 0.048 |
| PYDKKKRVVVPQALRVL [RPL16A] | 2.32 ± 0.14 | – | – | 1.35 ± 0.14 |
| NGQYAAFVKDMQVYLVP [RPC37] | 2.67 ± 0.12 | 1.52 ± 0.089 | 1.4 ± 0.073 | 1.83 ± 0.12 |
| IGAELKREESESAAVYN [SNF2] | 2.99 ± 0.087 | 3.08 ± 0.091 | 2.84 ± 0.071 | 3.21 ± 0.071 |
| DLKKLNLNVYIQVFEKP [CDC53] | 2.23 ± 0.11 | 2.5 ± 0.17 | 2.33 ± 0.27 | 2.78 ± 0.09 |
| IWFPEDFISPELIIDKV [MED1] | 2.68 ± 0.068 | 2.66 ± 0.069 | 3.01 ± 0.075 | 2.94 ± 0.044 |
| KVVEFAITHMIDALGTE [SCL1] | 2.03 ± 0.044 | 2.28 ± 0.038 | 2.27 ± 0.079 | 2.18 ± 0.023 |
| LSRNGKPVMEVTSSFFY [FAS1] | 3.04 ± 0.077 | 2.99 ± 0.089 | 2.79 ± 0.086 | 2.6 ± 0.073 |
| QRGKMHGLKQLRDSLAD [NUT2] | 3.04 ± 0.077 | 2.67 ± 0.062 | 1.48 ± 0.071 | 2.1 ± 0.06 |
| SFLGYLRYVKQIEGPFL [ISW2] | 2.28 ± 0.061 | 2.42 ± 0.046 | 2.45 ± 0.053 | 2.4 ± 0.04 |
| KVVKAIRIYFTEKDDNK [NUT1] | 2.31 ± 0.13 | 2.67 ± 0.07 | 2.55 ± 0.12 | 2.97 ± 0.056 |
| NNPKVKTSKRTKRWYKN [RPS11A] | 3.36 ± 0.091 | 3.28 ± 0.094 | 3.21 ± 0.12 | 3.19 ± 0.087 |
| YQLNGVAPFMIKYEFNG [YMR129W/POM152] | 2.63 ± 0.097 | 2.64 ± 0.075 | 2.62 ± 0.082 | 2.73 ± 0.057 |
| KSYASLLAQLNGTVNNN [RPT3] | 2.61 ± 0.14 | 1.84 ± 0.11 | 2.2 ± 0.19 | 2.55 ± 0.12 |

| Sequence | protein stability index (doa10∆) | protein stability index (pdr5∆) | protein stability index (san1∆) | protein stability index (ubr1∆) |
| --- | --- | --- | --- | --- |
| GWSLVGRILQNLLHSYM [YML103C/NUP188] | 1.85 ± 0.087 | 1.18 ± 0.06 | 1.18 ± 0.092 | 1.05 ± 0.03 |
| KESDLLEETRTTIGDTT [BRN1] | 2.47 ± 0.051 | 3.18 ± 0.064 | 2.99 ± 0.053 | 3.19 ± 0.055 |
| DYYQSIYAKYGAKGSTL [FAS2] | 2.85 ± 0.094 | 2.79 ± 0.07 | 2.71 ± 0.067 | 3.13 ± 0.076 |
| ITSDALEGITTTIDSLN [SMC3] | 2.45 ± 0.062 | 2.93 ± 0.084 | 2.9 ± 0.08 | 2.99 ± 0.07 |
| YAKFKRNTMMIQCQIDK [RGR1] | 2.23 ± 0.055 | 2.24 ± 0.051 | 2.1 ± 0.065 | 2.34 ± 0.033 |
| KEKIKGLQDEIMKIGGI [SMC4] | 3 ± 0.09 | 3.19 ± 0.055 | 3.17 ± 0.049 | 3.36 ± 0.063 |
| DDYYKEIIGGGSKSASK [ISW2] | 2.37 ± 0.12 | 3.09 ± 0.11 | 3 ± 0.09 | 2.69 ± 0.086 |
| KTLVALEKQEDYIDNLV [RPC37] | 3.23 ± 0.11 | 2.97 ± 0.14 | 2.97 ± 0.16 | 3.07 ± 0.11 |
| ELSRIENEVENINATNT [YCS4] | 3.52 ± 0.16 | 3.11 ± 0.11 | 3.23 ± 0.053 | 3.14 ± 0.11 |
| VGKYDKAIELLEKALQG [SRP72] | – | 1.66 ± 0.17 | – | 1.18 ± 0.22 |
| SMFGSDQKTGRAKSSSH [RPN4] | 3.02 ± 0.087 | 3.25 ± 0.11 | 3.14 ± 0.071 | 2.9 ± 0.076 |
| LQPIFKGEEAKLDSKKT [SSN3] | 3.52 ± 0.2 | 3.11 ± 0.23 | 3.54 ± 0.17 | – |
| HASKAIGLPRHSLAYLL [RRP6] | 2.24 ± 0.046 | 2.2 ± 0.048 | 2.37 ± 0.059 | 1.72 ± 0.037 |
| VKLGNIWKESLIELSGG [SMC2] | 2.22 ± 0.18 | 2.24 ± 0.098 | 2.12 ± 0.14 | 2.19 ± 0.1 |
| ARIVRVRSREDRKNRAP [RPS26A] | 3.55 ± 0.23 | – | 3.27 ± 0.26 | 2.87 ± 0.099 |
| CGAWEPAITIEKLKQFS [SIR3] | 1.97 ± 0.087 | 1.76 ± 0.079 | 2.58 ± 0.13 | 1.54 ± 0.072 |
| REYLEEYKSLFVVGVDN [RPP0] | 3.11 ± 0.075 | 2.55 ± 0.087 | 2.91 ± 0.1 | 3.24 ± 0.071 |
| TDLENSSLFQEKLLETN [ECM29] | 2.52 ± 0.096 | 2.46 ± 0.079 | 2.49 ± 0.056 | 2.68 ± 0.057 |
| GFPSAPQPLFMEDPPST [YMR153W/NUP53] | 2.66 ± 0.06 | 3.08 ± 0.056 | 2.98 ± 0.053 | 2.8 ± 0.052 |
| NENDSQAIITERLVEFS [YIL149C/MLP2] | 3.2 ± 0.095 | 3.15 ± 0.085 | 2.83 ± 0.087 | 2.87 ± 0.051 |
| SFVFGQAAAKPSLEKSS [YLR335W/NUP2] | 1.79 ± 0.1 | 2.5 ± 0.1 | 2.21 ± 0.14 | 2.67 ± 0.09 |
| QPKLNPMASSSSFGSES [SWI1] | 2.85 ± 0.064 | 3.28 ± 0.069 | 3.12 ± 0.048 | 2.92 ± 0.057 |
| DRSASRAVFLFRCKETH [RPC82] | 1.77 ± 0.084 | 3.07 ± 0.15 | – | 3.02 ± 0.17 |
| EIKDAETSCDNYHPMNI [SMC4] | 2.64 ± 0.057 | 2.83 ± 0.055 | 3.15 ± 0.043 | 2.98 ± 0.044 |
| LELNLSVLHSWVQLVQI [YJL039C/NUP192] | 1.28 ± 0.074 | 1.91 ± 0.085 | 2.11 ± 0.12 | 1.93 ± 0.09 |
